Assay results reported in IntAct's records for PubMed 24255178.

B1: Sarcolemmal membrane-associated protein (Homo sapiens), Q14BN4 (parent)
chain: MPSALAIFTCRPNSHPFQERHVYLDEPIKIGRSVARCRPAQNNATFDCKVLSRNHALVWFDHKTGKFYLQDTKSSNGTFINSQRLSRGSEESPPCEILSGDIIQFGVDVTENTRKVTHGCIVSTIKLFLPDGMEARLRSDVIHAPLPSPVDKVAANTPSMYSQELFQLSQYLQEALHREQMLEQKLATLQRLLAITQEASDTSWQALIDEDRLLSRLEVMGNQLQACSKNQTEDSLRKELIALQEDKHNYETTAKESLRRVLQEKIEVVRKLSEVERSLSNTEDECTHLKEMNERTQEELRELANKYNGAVNEIKDLSDKLKVAEGKQEEIQQKGQAEKKELQHKIDEMEEKEQELQAKIEALQADNDFTNERLTALQVRLEHLQEKTLKECSSLEHLLSKSGGDCTFIHQFIECQKKLIVEGHLTKAVEETKLSKENQTRAKESDFSDTLSPSKEKSSDDTTDAQMDEQDLNEPLAKVSLLKDDLQGAQSEIEAKQEIQHLRKELIEAQELARTSKQKCFELQALLEEERKAYRNQVEESTKQIQVLQAQLQRLHIDTENLREEKDSEITSTRDELLSARDEILLLHQAAAKVASERDTDIASLQEELKKVRAELERWRKAASEYEKEITSLQNSFQLRCQQCEDQQREEATRLQGELEKLRKEWNALETECHSLKRENVLLSSELQRQEKELHNSQKQSLELTSDLSILQMSRKELENQVGSLKEQHLRDSADLKTLLSKAENQAKDVQKEYEKTQTVLSELKLKFEMTEQEKQSITDELKQCKNNLKLLREKGNNKPWPWMPMLAALVAVTAIVLYVPGLARASP
partner: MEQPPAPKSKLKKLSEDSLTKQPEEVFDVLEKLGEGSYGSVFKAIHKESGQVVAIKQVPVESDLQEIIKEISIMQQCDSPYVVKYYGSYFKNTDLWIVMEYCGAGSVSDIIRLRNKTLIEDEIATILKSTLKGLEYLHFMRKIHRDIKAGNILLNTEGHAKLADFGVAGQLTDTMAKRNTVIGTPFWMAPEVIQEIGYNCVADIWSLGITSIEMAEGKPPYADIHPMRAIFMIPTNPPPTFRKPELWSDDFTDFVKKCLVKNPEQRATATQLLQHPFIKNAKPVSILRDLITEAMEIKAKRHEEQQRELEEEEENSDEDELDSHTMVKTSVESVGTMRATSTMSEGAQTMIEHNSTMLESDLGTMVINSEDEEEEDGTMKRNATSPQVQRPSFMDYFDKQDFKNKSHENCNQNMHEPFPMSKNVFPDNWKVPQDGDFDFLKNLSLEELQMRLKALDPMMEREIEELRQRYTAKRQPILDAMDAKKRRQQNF
B2: Serine/threonine-protein kinase 3 (Homo sapiens), Q13188 (parent)
chain: B1 partner
partner: B1 chain
B3: Sarcolemmal membrane-associated protein (Homo sapiens), Q14BN4 (parent)
chain: B1 chain
partner: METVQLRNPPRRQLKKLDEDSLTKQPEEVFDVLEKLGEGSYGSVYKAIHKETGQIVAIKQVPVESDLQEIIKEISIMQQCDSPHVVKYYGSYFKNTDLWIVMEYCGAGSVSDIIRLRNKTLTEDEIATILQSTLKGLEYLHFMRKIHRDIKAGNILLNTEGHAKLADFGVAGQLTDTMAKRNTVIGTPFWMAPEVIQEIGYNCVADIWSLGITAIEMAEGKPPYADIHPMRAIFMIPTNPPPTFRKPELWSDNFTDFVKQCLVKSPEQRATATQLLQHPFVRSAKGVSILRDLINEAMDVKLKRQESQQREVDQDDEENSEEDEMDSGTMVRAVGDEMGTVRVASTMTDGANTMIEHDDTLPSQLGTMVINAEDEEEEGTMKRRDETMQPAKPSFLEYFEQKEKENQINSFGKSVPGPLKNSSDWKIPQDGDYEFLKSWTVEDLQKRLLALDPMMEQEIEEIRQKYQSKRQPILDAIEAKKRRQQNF

Variants of: B1
Conditions: with stk3_human STK3, Q13188

Variant	effect of a mutation on the interaction
R32A	decreasing interaction
H55A	decreasing interaction

Variants of: B2
Conditions: with slmap_human SLMAP, Q14BN4

Variant	effect of a mutation on the interaction
MEQPPAPKSKLKKLSEDSLTKQPEEVFDVLEKLGEGSYGSVFKAIHKESGQVVAIKQVPVESDLQEIIKEISIMQQCDSPYVVKYYGSYFKNTDLWIVMEYCGAGSVSDIIRLRNKTLIEDEIATILKSTLKGLEYLHFMRKIHRDIKAGNILLNTEGHAKLADFGVAGQLTDTMAKRNAVIGTPFWMAPEVIQEIGYNCVADIWSLGITSIEMAEGKPPYADIHPMRAIFMIPTNPPPTFRKPELWSDDFTDFVKKCLVKNPEQRATATQLLQHPFIKNAKPVSILRDLITEAMEIKAKRHEEQQRELEEEEENSDEDELDSHTMVKTSVESVGTMRATSTMSEGAQTMIEHNSTMLESDLGTMVINSEDEEEEDGTMKRNATSPQVQRPSFMDYFDKQDFKNKSHENCNQNMHEPFPMSKNVFPDNWKVPQDGDFDFLKNLSLEELQMRLKALDPMMEREIEELRQRYTAKRQPILDAMDAKKRRQQNF [T180A]	decreasing interaction

Variants of: B3
Conditions: with stk4_human STK4, Q13043

Variant	effect of a mutation on the interaction
R32A	decreasing interaction
H55A	decreasing interaction
